B1: Fab 4.14 (Fab, V domains shown)
VH: QVQLQESGPGLVKPSETLSLTCTVSGFSLTNWDVHWIRQPPGKGLEWIGNIWSGGNTDYNTPFTSRVTISVDTSKNQFSLKLSSVTAADTAVYYCARALDYYDYDYAYWGQGTMVTVSS
VL: EIVLTQSPDFQSVTPKEKVTITCRASYSIGTNIHWYQQKPDQSPKLLIKYASESISGVPSRFSGSGSGTDFTLTINSLEAEDAATYYCQQNNDWPTTFGGGTKVEIK
notes: Fab
B2: Fab 2.38 (Fab, V domains shown)
VH: QVTLKESGPVLVKPTETLTLTCTVSGFSLSNWGVHWIRQPPGKALEWLAVIWSGGNTDYNTPFDSRLTISKDTSKSQVVLTMTNMDPVDTATYYCARALDYYDYDFAYWGQGTMVTVSS
VL: EIVLTQSPDFQSVTPKEKVTITCRASYSIGTNIHWYQQKPDQSPKLLIKYASESISGVPSRFSGSGSGTDFTLTINSLEAEDAATYYCQQNNEWPTSFGGGTKVEIK
notes: Fab
B3: full-length monoclonal antibody VH4.21 (antibody, V domains shown)
VH: QVQLQESGPGLVKPSETLSLTCTVSGFSLTNWDVHWIRQPPGKGLEWIGVIWSGGNTDYNTPFTSRVTISVDTSKNQFSLKLSSVTAADTAVYYCARALDYYDYDFAYWGQGTMVTVSS
VL: EIVLTQSPDFQSVTPKEKVTITCRASYSIGTNIHWYQQKPDQSPKLLIKYASESISGVPSRFSGSGSGTDFTLTINSLEAEDAATYYCQQNNDWPTSFGGGTKVEIK
notes: Full-length antibody with human Fc
B4: Fab 2.II.3 (Fab, V domains shown)
VH: QVTLKESGPVLVKPTETLTLTCTVSGFSLSNWDVHWIRQPPGKALEWLAVIWSGGNTDYNTPFTSRLTISKDTSKSQVVLTMTNMDPVDTATYYCARALDYYDYDFAYWGQGTMVTVSS
VL: EIVLTQSPDFQSVTPKEKVTITCRASYSIGTNIHWYQQKPDQSPKLLIKYASESISGVPSRFSGSGSGTDFTLTINSLEAEDAATYYCQQNNDWPTTFGGGTKVEIK
notes: Fab; also called 2.11.3
B5: Fab 4.21 (Fab, V domains shown)
VH: QVQLQESGPGLVKPSETLSLTCTVSGFSLTNWDVHWIRQPPGKGLEWIGVIWSGGNTDYNTPFTSRVTISVDTSKNQFSLKLSSVTAADTAVYYCARALDYYDYDFAYWGQGTMVTVSS
VL: EIVLTQSPDFQSVTPKEKVTITCRASYSIGTNIHWYQQKPDQSPKLLIKYASESISGVPSRFSGSGSGTDFTLTINSLEAEDAATYYCQQNNDWPTSFGGGTKVEIK
notes: Fab
B6: full-length monoclonal antibody VH4.15 (antibody, V domains shown)
VH: QVQLQESGPGLVKPSETLSLTCTVSGFSLTNYGVHWIRQPPGKGLEWIGNIWSGGNTDYNTPFTSRVTISVDTSKNQFSLKLSSVTAADTAVYYCARALDYYDYDYAYWGQGTMVTVSS
VL: EIVLTQSPDFQSVTPKEKVTITCRASYSIGTNIHWYQQKPDQSPKLLIKYASESISGVPSRFSGSGSGTDFTLTINSLEAEDAATYYCQQNNEWPTSFGGGTKVEIK
notes: as for B3
B7: full-length monoclonal antibody VH2.87 (antibody, V domains shown)
VH: QVTLKESGPVLVKPTETLTLTCTVSGFSLSNWDVHWIRQPPGKALEWLAVIWSGGATDYNTPFNSRLTISKDTSKSQVVLTMTNMDPVDTATYYCARALDYYDYNFAYWGQGTMVTVSS
VL: EIVLTQSPDFQSVTPKEKVTITCRASYSIGTNIHWYQQKPDQSPKLLIKYASESISGVPSRFSGSGSGTDFTLTINSLEAEDAATYYCQQNNNWPTTFGGGTKVEIK
notes: as for B3
B8: full-length monoclonal antibody VH2.69 (antibody, V domains shown)
VH: QVTLKESGPVLVKPTETLTLTCTVSGFSLSNWDVHWIRQPPGKALEWLAVIWSGGNTDYNTPFASRLTISKDTSKSQVVLTMTNMDPVDTATYYCARALDYYDYNFAYWGQGTMVTVSS
VL: EIVLTQSPDFQSVTPKEKVTITCRASYSIGTNIHWYQQKPDQSPKLLIKYASESISGVPSRFSGSGSGTDFTLTINSLEAEDAATYYCQQNNNWPTSFGGGTKVEIK
notes: as for B3

Tests used:
[1] = target: T1, soluble EGFR (sEGFR), amino acids 1-619 of mature human EGFR with (Gly)4Ser linker and (His)6 tag (human, UniProt P00533 25-643, biotinylated with Sulfo-NHS-LC-Biotin in the filter lift and the capture ELISA); experiment: capture filter lift and capture ELISA, biotinylated sEGFR
T1 construct: range 1-619; Expressed in CHO-K1 cells; also called biotinylated sEGFR; B-sEGFR
Method: Briefly, a filter is coated with a capture reagent (goat anti-human kappa chain antibody), then the coated filter is placed on a plate with phage plaques, from phage which are expressing Fabs. The filter is incubated with the plaques, then the filter is incubated with biotinylated sEGFR, and bound biotinylated sEGFR is detected by binding of Neutravidin-AP and incubation with the detectable alkaline phosphatase substrate.
The filter is submerged for 15 min. The filter is washed three times in PBS. The filter is blocked in 1% BSA in PBS for 1 hour. The filter is washed three times in PBS. The filter is air dried for 10 min. The filter is carefully laid onto phage plate and incubated overnight at 22° C. The filter is carefully lifted off and washed briefly in PBS. The filter is incubated with Biotinylated antigen at 1/1000 dilution into 3% dry milk, PBS, 0.05% Tween 20 for 1 hour at room temperature. The filter is vacuum washed with PBS, 0.05% Tween 20 three times. The filter is incubated with Neutravidin-AP 1/1000 in PBS, 0.05% Tween 20 for 30 min. at room temperature. The filter is vacuum washed with PBS, 0.05% Tween 20 three times. The filter is developed in 10 mls AP substrate (Nitro-blue tetrazolium, 5-Bromo-4-chloro-indolyl phosphate, Pierce, Rockford, Ill.). Plaques are selected based on blue color intensity.
Capture ELISA is used as an assay to detect Fabs which bind sEGFR as follows. […] The wells are washed 3 times with PBS-Tween 20 (0.05%). the wells are blocked with 50 μL/well 1% BSA in PBS-Tween for 1 hour at RT. The wells are washed 3 times with PBS-Tween. […] The plate is incubated at RT for 2 hours. The plate is wash 3 times with PBS-Tween. 50 μL/well biotinylated-sEGFR diluted 1/1000 in PBS-Tween are added and the plate is incubated at RT for 1 hour. The plate is washed 3 times with PBS-Tween.

[2] = target: T1, soluble EGFR (sEGFR), amino acids 1-619 …; experiment: KinExA, calculated as Kd x kon
Method: (§1) Binding affinity measurements for full-length monoclonal antibodies of the invention are determined using a Sapidyne KINEXA assay. NHS-activated fast-flow sepharose beads (GE Healthcare) are pre-coated with antigen (50 μg anti-EGFR antibody per ml of beads) and blocked with 10 mg/ml BSA in 1 M Tris-HCl, pH 8.0. […] To determine the free antibody present at equilibrium, each sample is passed through the sEGFR-coated beads. The amount of bead-bound antibody is then quantified by passing a solution of fluorescent (Cy5) labeled goat anti-human Fc antibody (Jackson Immuno Research) diluted 1:4000 in running buffer over the beads. The measured fluorescence signal is proportional to the concentration of free antibody at equilibrium. Each concentration of sEGFR is measured in duplicate. The equilibrium dissociation constant (KD) is obtained from non-linear regression of the competition curves using a multiple-curve, one-site homogeneous binding model (KINEXA software).
(§2) The association rate constant (kₒₙ) for sEGFR binding is also determined using a Sapidyne KINEXA assay. Two pM antibody is mixed with 20 pM sEGFR using the same conditions as described above. At various times, samples are probed for free antibody using the conditions described above for equilibrium binding, and then the resulting time dependence is fit using the KINEXA software to determine the association rate (kₒₙ). The dissociation rate constant (koff) is calculated using the expression koff=Kd×kₒₙ.

[3] = target: T1, soluble EGFR (sEGFR), amino acids 1-619 …; experiment: KinExA, equilibrium, full-length antibody with sEGFR in solution
Method: as §1

[4] = target: T1, soluble EGFR (sEGFR), amino acids 1-619 …; experiment: KinExA, full-length antibody with sEGFR in solution
Method: as §1, §2

[5] = target: T1, soluble EGFR (sEGFR), amino acids 1-619 …; experiment: capture ELISA: binder captured on goat anti-human kappa at varied concentration, biotinylated sEGFR (1/1000) detected with Neutravidin-AP, OD405
Method: Capture ELISA is used as an assay to detect Fabs which bind sEGFR as follows. […] The wells are washed 3 times with PBS-Tween 20 (0.05%). the wells are blocked with 50 μL/well 1% BSA in PBS-Tween for 1 hour at RT. The wells are washed 3 times with PBS-Tween. […] The plate is incubated at RT for 2 hours. The plate is wash 3 times with PBS-Tween. 50 μL/well biotinylated-sEGFR diluted 1/1000 in PBS-Tween are added and the plate is incubated at RT for 1 hour. The plate is washed 3 times with PBS-Tween. 50 μL/well Neutravidin-Alkaline Phosphatase (Neutravidin-AP; Pierce, Rockford, Ill.) diluted 1/1000 in PBS-Tween are added and incubated for 30 min. at RT. The plate is washed 3 times with PBS-Tween. 150 μL/well pNPP substrate (Sigma) is added and incubated at 37° C. until color develops.

Row | Binder | binding result [1] | koff [2] | Kd [3] | kon [4] | EC50 (read off the curve) [5]
1 | B1 | binds |  |  |  | 
2 | B2 | binds |  |  |  | 
3 | B3 |  | 2.02e-06 s⁻¹ | 0.188 pM | 1.07e+07 M⁻¹ s⁻¹ | 
4 | B4 | binds |  |  |  | 
5 | B5 |  |  |  |  | ~0.02 µg/mL
6 | B6 |  | 1.75e-07 s⁻¹ | 0.012 pM | 1.46e+07 M⁻¹ s⁻¹ | 
7 | B7 |  |  | 0.215 pM |  | 
8 | B8 |  | 6.51e-06 s⁻¹ | 0.68 pM | 9.64e+06 M⁻¹ s⁻¹ | 
